Data as given in patent publication US20250043290A1, “RNA SEQUENCES THAT INDUCE FLUORESCENCE OF SMALL MOLECULE FLUOROPHORES, MOLECULAR COMPLEXES, SENSORS, AND METHODS OF USE THEREOF” (CORNELL UNIVERSITY, priority 2021, published 2025).

Tests used:
[1] = On and off rates of aptamer binding to DFHO; details: 50 nM RNA
Protocol: (§1) FIGS. 7A-7H provide photophysical and biophysical characterization of Squash. […] Excess RNA was used to ensure binding of nearly all fluorophore. […] Data represent mean values±s.d. for n=3 independent experiments. […] The fluorescence signal trace was fitted with a monoexponential curve to extract kobs. kobs was plotted as a function of total RNA (50 nM RNA) and fluorophore concentration. kon and koff were extracted as the slope and intercept, respectively. Squash koff (0.014±0.008 s^−1) is very similar to that of Corn (0.018±0.002 s^−1). kon for Squash-DFHO (162300±8100 M^−1 s^−1) is seven-times higher than Corn-DFHO (23000±3000 M^−1 s^−1) which could be due to the high folding of Squash. […]
To measure on and off rates of Squash binding to DFHO, the same protocol that was reported previously to measure kinetic rates for Spinach-DFHBI was used (Han et al., “Understanding the Photophysics of the Spinach-DFHBI RNA Aptamer-Fluorogen Complex to Improve Live-Cell RNA Imaging,” J. Am. Chem. Soc. 135:19033-19038 (2013), which is hereby incorporated by reference in its entirety). Briefly, 50 nM RNA was mixed with different amounts of DFHO and binding kinetics was monitored on the fluorimeter as fluorescence signal increases. Each fluorescence signal trace was fitted with a monoexponential curve and the observed rate constant (kobs) was extracted. […]

[2] = Kd measurements for Broccoli and Squash binding to BI; details: 50 nM RNA
Protocol: as §1
Dissociation constants (Kd) for the RNA-fluorophore complexes were determined as described previously (Paige et al., “RNA Mimics of Green Fluorescent Protein,” Science 333:642-646 (2011) and Filonov et al., “Broccoli: Rapid Selection of an RNA Mimic of Green Fluorescent Protein by Fluorescence-Based Selection and Directed Evolution,” J. Am. Chem. Soc. 136: 16299-16308 (2014), which are hereby incorporated by reference in their entirety). In brief, the RNA aptamer at a fixed concentration (50 nM) was titrated with increasing fluorophore concentration and the resulting increase in fluorescence was recorded. […]

In vitro folding of RNAs = assay type: physicochemical; details: 40 mM HEPES-KOH (pH 7.4), 100 mM KCl, 0.5 mM MgCl2
Protocol: Briefly, the fluorescence intensities of two solutions were compared: one having excess fluorophore and limiting RNA, and the other with excess RNA and limiting fluorophore. This allows calculation of the percent of the aptamer that is folded. For these experiments, 0.2 μM of fluorophore (or RNA) and 10 μM of RNA (or fluorophore) was used. The signal from the limiting RNA condition was divided by the signal from the limiting fluorophore condition to determine the fraction folded.
To prepare this complex, 10 μM Squash is incubated with 0.2 μM DFHO. By having large excess of Squash, there is likely to be enough folded Squash to form 0.2 μM Squash-DFHO complex. Next, 0.2 μM Squash is incubated with excess (10 μM) DFHO.

B1: Squash: fluorogenic RNA aptamer evolved from the add A-riboswitch aptamer, binds DFHBI-1T and DFHO; SEQ ID NO: 12 (SEQ ID NO: 1) (nucleic acid)
chain: AGGUGAGCCCAAUAAUACGGUUUGGGUUAGGAUAGGAAGUAGAGCCGUAAACUCUCUAAGCG
modifications: RNA, backbone not given here
- koff [1]: 0.014 ± 0.008 s⁻¹
- Affinity for BI [2]: much weaker affinity than Broccoli
- % folded in vitro (In vitro folding of RNAs): approximately 80%
